In article PMC6928932:

Key:
[1] = target: human gastric mucin MUC6 (human (endogenous in gastric corpus tissue)) (UniProt Q6W4X9); experiment: far-Western, overlay or dot blot; as the overlay on fractions B12/C1, but with 30 mM EDTA and no added Ca2+
[2] = target: mucins (PAS-positive high-molecular-mass peak of human gastric extracts, containing MUC5AC and MUC6); experiment: SEC + native gel or EMSA; human gastric extracts (conventional extract, extract E1) on Superdex 75 HL, 20 mM Tris-HCl pH 7.0, 30 mM NaCl; fractions analysed by 1% AgGE and Western blot; semi-quantitative TFF2 content

Sequence of UniProt Q6W4X9 (Q6W4X9 23-2439): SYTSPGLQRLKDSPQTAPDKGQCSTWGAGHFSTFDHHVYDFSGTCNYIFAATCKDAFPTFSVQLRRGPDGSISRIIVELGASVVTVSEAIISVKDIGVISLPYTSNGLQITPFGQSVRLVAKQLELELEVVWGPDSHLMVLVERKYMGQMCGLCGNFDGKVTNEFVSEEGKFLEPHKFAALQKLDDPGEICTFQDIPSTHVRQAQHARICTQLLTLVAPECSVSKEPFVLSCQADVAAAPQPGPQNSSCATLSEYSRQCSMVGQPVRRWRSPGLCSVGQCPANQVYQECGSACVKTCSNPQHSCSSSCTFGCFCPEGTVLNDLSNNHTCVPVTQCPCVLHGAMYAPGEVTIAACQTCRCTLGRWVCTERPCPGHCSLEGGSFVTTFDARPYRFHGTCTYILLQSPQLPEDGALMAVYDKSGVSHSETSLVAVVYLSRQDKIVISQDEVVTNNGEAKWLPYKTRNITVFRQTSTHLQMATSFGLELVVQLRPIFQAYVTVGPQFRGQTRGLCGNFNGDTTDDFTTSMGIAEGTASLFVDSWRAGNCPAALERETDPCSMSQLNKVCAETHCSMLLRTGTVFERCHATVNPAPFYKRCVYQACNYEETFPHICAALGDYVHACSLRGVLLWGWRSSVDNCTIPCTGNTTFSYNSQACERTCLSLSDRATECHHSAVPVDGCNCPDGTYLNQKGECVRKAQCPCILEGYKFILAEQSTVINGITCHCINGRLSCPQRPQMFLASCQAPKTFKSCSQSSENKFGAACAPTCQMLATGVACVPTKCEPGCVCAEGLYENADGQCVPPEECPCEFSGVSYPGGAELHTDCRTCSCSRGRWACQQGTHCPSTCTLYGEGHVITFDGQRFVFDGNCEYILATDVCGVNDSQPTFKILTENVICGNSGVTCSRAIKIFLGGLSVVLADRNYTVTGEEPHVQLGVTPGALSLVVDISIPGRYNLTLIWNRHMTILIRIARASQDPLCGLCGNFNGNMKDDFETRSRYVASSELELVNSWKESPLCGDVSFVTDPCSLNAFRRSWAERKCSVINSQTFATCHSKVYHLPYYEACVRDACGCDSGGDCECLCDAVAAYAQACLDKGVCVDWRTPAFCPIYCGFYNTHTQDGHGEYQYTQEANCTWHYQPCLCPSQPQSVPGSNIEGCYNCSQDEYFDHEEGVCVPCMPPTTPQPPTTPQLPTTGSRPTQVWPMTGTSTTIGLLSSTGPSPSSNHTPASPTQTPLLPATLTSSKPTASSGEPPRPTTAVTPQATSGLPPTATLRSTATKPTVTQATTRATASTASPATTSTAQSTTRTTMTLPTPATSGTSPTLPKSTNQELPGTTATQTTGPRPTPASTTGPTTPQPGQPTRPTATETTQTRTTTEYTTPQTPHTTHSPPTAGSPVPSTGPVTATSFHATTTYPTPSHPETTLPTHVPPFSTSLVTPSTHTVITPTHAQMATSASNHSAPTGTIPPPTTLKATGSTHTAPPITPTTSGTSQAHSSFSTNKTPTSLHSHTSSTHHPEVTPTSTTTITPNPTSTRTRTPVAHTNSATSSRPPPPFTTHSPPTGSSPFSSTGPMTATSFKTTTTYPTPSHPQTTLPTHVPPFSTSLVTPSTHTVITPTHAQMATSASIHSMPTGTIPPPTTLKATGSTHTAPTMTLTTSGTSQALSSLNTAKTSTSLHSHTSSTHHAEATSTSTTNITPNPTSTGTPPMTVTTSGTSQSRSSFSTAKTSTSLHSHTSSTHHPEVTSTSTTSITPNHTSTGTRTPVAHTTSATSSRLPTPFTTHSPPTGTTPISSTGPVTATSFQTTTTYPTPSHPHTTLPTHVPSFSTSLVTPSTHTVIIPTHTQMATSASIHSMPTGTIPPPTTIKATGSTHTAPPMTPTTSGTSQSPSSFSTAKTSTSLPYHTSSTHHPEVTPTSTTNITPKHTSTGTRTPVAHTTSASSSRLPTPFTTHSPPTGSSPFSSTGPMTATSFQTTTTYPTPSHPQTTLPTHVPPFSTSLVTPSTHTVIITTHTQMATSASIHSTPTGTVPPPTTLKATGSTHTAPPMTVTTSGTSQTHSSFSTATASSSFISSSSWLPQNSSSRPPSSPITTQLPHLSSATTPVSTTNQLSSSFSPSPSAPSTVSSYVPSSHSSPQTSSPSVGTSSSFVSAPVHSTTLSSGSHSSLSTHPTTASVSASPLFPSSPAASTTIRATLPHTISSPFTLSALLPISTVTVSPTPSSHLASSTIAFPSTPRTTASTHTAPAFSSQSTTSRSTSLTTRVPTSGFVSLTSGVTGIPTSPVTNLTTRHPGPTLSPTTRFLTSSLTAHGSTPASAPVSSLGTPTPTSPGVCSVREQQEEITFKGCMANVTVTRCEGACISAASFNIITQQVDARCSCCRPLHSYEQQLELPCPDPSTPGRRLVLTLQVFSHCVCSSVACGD

Molecule	relative amount of TFF2 bound with 30 mM EDTA [1]	percent of TFF2 in the high-molecular-mass form (extract E1) [2]
125I-labeled recombinant human glycosylated TFF2 (from UniProt Q03403 24-129) (natural protein)	10%	–
human gastric TFF2 (endogenous) (natural protein, mainly N-glycosylated, to a minor extent non-glycosylated) EKPSPCQCSRLSPHNRTNCGFPGITSDQCFDNGCCFDSSVTGVPWCFHPLPKQESDQCVMEVSDRRNCGYPGISPEECASRKCCFSNFIFEVPWCFFPKSVEDCHY	–	86%
